# Source: patent US20140087995A1 (published 2014)
# Numbered stars: 1 amine (or outer) side, 2 acyl side, 3 side chain; on linkers, the order of the positions; unused ones are H or OH. Bridge positions count the residues as written; N and C are the ends. Square brackets hold non-standard residues; d marks the D form. Side chains are listed from the residue outwards. Ends that are not written are not given here. * marks the point of attachment. C20 diacid = O=C(O)CCCCCCCCCCCCCCCCCCC(=O)*; γGlu = O=C(O)[C@H](CCC(=O)[*:2])N[*:1]
# T1: human amylin receptor (amylin 3(a) receptor: human calcitonin receptor coexpressed with RAMP-3) (human, UniProt P30988 25-474; O60896 24-148)
# T1 sequence (looked up) 1: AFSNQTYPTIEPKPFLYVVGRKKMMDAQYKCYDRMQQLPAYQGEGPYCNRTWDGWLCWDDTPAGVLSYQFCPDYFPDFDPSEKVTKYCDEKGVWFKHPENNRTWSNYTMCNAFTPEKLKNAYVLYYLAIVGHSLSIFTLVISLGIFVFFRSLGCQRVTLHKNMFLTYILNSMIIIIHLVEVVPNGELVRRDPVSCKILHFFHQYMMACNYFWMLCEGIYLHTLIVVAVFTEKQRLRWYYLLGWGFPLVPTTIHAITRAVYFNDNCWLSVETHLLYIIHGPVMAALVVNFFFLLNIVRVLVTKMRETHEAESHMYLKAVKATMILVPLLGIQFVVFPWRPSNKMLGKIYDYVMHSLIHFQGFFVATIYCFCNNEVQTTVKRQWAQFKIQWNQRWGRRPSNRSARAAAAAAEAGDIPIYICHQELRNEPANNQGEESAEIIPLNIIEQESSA
# T1 sequence (looked up) 2: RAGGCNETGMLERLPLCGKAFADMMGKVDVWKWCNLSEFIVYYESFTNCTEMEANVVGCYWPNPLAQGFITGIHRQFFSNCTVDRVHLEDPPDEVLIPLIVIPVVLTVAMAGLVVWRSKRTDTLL
# T2: human calcitonin receptor (human, UniProt P30988 25-474)
# T2 sequence (looked up): T1 sequence (looked up) 1
# B1: N^ε1-[(4S)-4-carboxy-4-(19-carboxynonadecanoylamino)butanoyl]-[His14,Arg17,Pro21,Pro27,His34]-h-amylin (peptide)
# peptide: K([γGlu-C20 diacid])CNTATCATQRLAHFLRHSSPNFGAIPSSTNVGHNTY-NH2
# modifications: disulfide 2-7; N-terminus assumed
# SMILES: CC[C@H](C)[C@H](NC(=O)[C@H](C)NC(=O)CNC(=O)[C@H](Cc1ccccc1)NC(=O)[C@H](CC(N)=O)NC(=O)[C@@H]1CCCN1C(=O)[C@H](CO)NC(=O)[C@H](CO)NC(=O)[C@H](Cc1c[nH]cn1)NC(=O)[C@H](CCCNC(=N)N)NC(=O)[C@H](CC(C)C)NC(=O)[C@H](Cc1ccccc1)NC(=O)[C@H](Cc1c[nH]cn1)NC(=O)[C@H](C)NC(=O)[C@H](CC(C)C)NC(=O)[C@H](CCCNC(=N)N)NC(=O)[C@H](CCC(N)=O)NC(=O)[C@@H](NC(=O)[C@H](C)NC(=O)[C@@H]1CSSC[C@H](NC(=O)[C@@H](N)CCCCNC(=O)CC[C@H](NC(=O)CCCCCCCCCCCCCCCCCCC(=O)O)C(=O)O)C(=O)N[C@@H](CC(N)=O)C(=O)N[C@@H]([C@@H](C)O)C(=O)N[C@@H](C)C(=O)N[C@@H]([C@@H](C)O)C(=O)N1)[C@@H](C)O)C(=O)N1CCC[C@H]1C(=O)N[C@@H](CO)C(=O)N[C@@H](CO)C(=O)N[C@H](C(=O)N[C@@H](CC(N)=O)C(=O)N[C@H](C(=O)NCC(=O)N[C@@H](Cc1c[nH]cn1)C(=O)N[C@@H](CC(N)=O)C(=O)N[C@H](C(=O)N[C@@H](Cc1ccc(O)cc1)C(N)=O)[C@@H](C)O)C(C)C)[C@@H](C)O
# notes: also called compound 81
# B2: N^ε1-[(4S)-4-carboxy-4-[[(4S)-4-carboxy-4-(19-carboxynonadecanoylamino)butanoyl]amino]butanoyl]-[D-Asp14,Arg17,Pro21,Pro27,Arg35]-h-amylin (peptide)
# peptide: K([γGlu-γGlu-C20 diacid])CNTATCATQRLA[dD]FLRHSSPNFGAIPSSTNVGSRTY-NH2
# modifications: disulfide 2-7; N-terminus assumed
# SMILES: CC[C@H](C)[C@H](NC(=O)[C@H](C)NC(=O)CNC(=O)[C@H](Cc1ccccc1)NC(=O)[C@H](CC(N)=O)NC(=O)[C@@H]1CCCN1C(=O)[C@H](CO)NC(=O)[C@H](CO)NC(=O)[C@H](Cc1c[nH]cn1)NC(=O)[C@H](CCCNC(=N)N)NC(=O)[C@H](CC(C)C)NC(=O)[C@H](Cc1ccccc1)NC(=O)[C@@H](CC(=O)O)NC(=O)[C@H](C)NC(=O)[C@H](CC(C)C)NC(=O)[C@H](CCCNC(=N)N)NC(=O)[C@H](CCC(N)=O)NC(=O)[C@@H](NC(=O)[C@H](C)NC(=O)[C@@H]1CSSC[C@H](NC(=O)[C@@H](N)CCCCNC(=O)CC[C@H](NC(=O)CC[C@H](NC(=O)CCCCCCCCCCCCCCCCCCC(=O)O)C(=O)O)C(=O)O)C(=O)N[C@@H](CC(N)=O)C(=O)N[C@@H]([C@@H](C)O)C(=O)N[C@@H](C)C(=O)N[C@@H]([C@@H](C)O)C(=O)N1)[C@@H](C)O)C(=O)N1CCC[C@H]1C(=O)N[C@@H](CO)C(=O)N[C@@H](CO)C(=O)N[C@H](C(=O)N[C@@H](CC(N)=O)C(=O)N[C@H](C(=O)NCC(=O)N[C@@H](CO)C(=O)N[C@@H](CCCNC(=N)N)C(=O)N[C@H](C(=O)N[C@@H](Cc1ccc(O)cc1)C(N)=O)[C@@H](C)O)C(C)C)[C@@H](C)O
# notes: Residue 14 is D-aspartic acid (printed 14d)
# B3: N^ε1-[(4S)-4-carboxy-4-[[(4S)-4-carboxy-4-(19-carboxynonadecanoylamino)butanoyl]amino]butanoyl]-[Arg17,Pro21,Pro27,Pro31,Pro34,Arg35]-h-amylin (peptide)
# peptide: K([γGlu-γGlu-C20 diacid])CNTATCATQRLANFLRHSSPNFGAIPSSTPVGPRTY-NH2
# modifications: disulfide 2-7; N-terminus assumed
# SMILES: CC[C@H](C)[C@H](NC(=O)[C@H](C)NC(=O)CNC(=O)[C@H](Cc1ccccc1)NC(=O)[C@H](CC(N)=O)NC(=O)[C@@H]1CCCN1C(=O)[C@H](CO)NC(=O)[C@H](CO)NC(=O)[C@H](Cc1c[nH]cn1)NC(=O)[C@H](CCCNC(=N)N)NC(=O)[C@H](CC(C)C)NC(=O)[C@H](Cc1ccccc1)NC(=O)[C@H](CC(N)=O)NC(=O)[C@H](C)NC(=O)[C@H](CC(C)C)NC(=O)[C@H](CCCNC(=N)N)NC(=O)[C@H](CCC(N)=O)NC(=O)[C@@H](NC(=O)[C@H](C)NC(=O)[C@@H]1CSSC[C@H](NC(=O)[C@@H](N)CCCCNC(=O)CC[C@H](NC(=O)CC[C@H](NC(=O)CCCCCCCCCCCCCCCCCCC(=O)O)C(=O)O)C(=O)O)C(=O)N[C@@H](CC(N)=O)C(=O)N[C@@H]([C@@H](C)O)C(=O)N[C@@H](C)C(=O)N[C@@H]([C@@H](C)O)C(=O)N1)[C@@H](C)O)C(=O)N1CCC[C@H]1C(=O)N[C@@H](CO)C(=O)N[C@@H](CO)C(=O)N[C@H](C(=O)N1CCC[C@H]1C(=O)N[C@H](C(=O)NCC(=O)N1CCC[C@H]1C(=O)N[C@@H](CCCNC(=N)N)C(=O)N[C@H](C(=O)N[C@@H](Cc1ccc(O)cc1)C(N)=O)[C@@H](C)O)C(C)C)[C@@H](C)O
# B4: N^ε1-[(4S)-4-carboxy-4-[[(4S)-4-carboxy-4-(19-carboxynonadecanoylamino)butanoyl]amino]butanoyl]-[Asp14,Arg17,Pro21,Pro27,Pro34,Arg35]-h-amylin (peptide)
# peptide: K([γGlu-γGlu-C20 diacid])CNTATCATQRLADFLRHSSPNFGAIPSSTNVGPRTY-NH2
# modifications: disulfide 2-7; N-terminus assumed
# SMILES: CC[C@H](C)[C@H](NC(=O)[C@H](C)NC(=O)CNC(=O)[C@H](Cc1ccccc1)NC(=O)[C@H](CC(N)=O)NC(=O)[C@@H]1CCCN1C(=O)[C@H](CO)NC(=O)[C@H](CO)NC(=O)[C@H](Cc1c[nH]cn1)NC(=O)[C@H](CCCNC(=N)N)NC(=O)[C@H](CC(C)C)NC(=O)[C@H](Cc1ccccc1)NC(=O)[C@H](CC(=O)O)NC(=O)[C@H](C)NC(=O)[C@H](CC(C)C)NC(=O)[C@H](CCCNC(=N)N)NC(=O)[C@H](CCC(N)=O)NC(=O)[C@@H](NC(=O)[C@H](C)NC(=O)[C@@H]1CSSC[C@H](NC(=O)[C@@H](N)CCCCNC(=O)CC[C@H](NC(=O)CC[C@H](NC(=O)CCCCCCCCCCCCCCCCCCC(=O)O)C(=O)O)C(=O)O)C(=O)N[C@@H](CC(N)=O)C(=O)N[C@@H]([C@@H](C)O)C(=O)N[C@@H](C)C(=O)N[C@@H]([C@@H](C)O)C(=O)N1)[C@@H](C)O)C(=O)N1CCC[C@H]1C(=O)N[C@@H](CO)C(=O)N[C@@H](CO)C(=O)N[C@H](C(=O)N[C@@H](CC(N)=O)C(=O)N[C@H](C(=O)NCC(=O)N1CCC[C@H]1C(=O)N[C@@H](CCCNC(=N)N)C(=O)N[C@H](C(=O)N[C@@H](Cc1ccc(O)cc1)C(N)=O)[C@@H](C)O)C(C)C)[C@@H](C)O
# notes: also called compound 130
# B5: N^ε1-[(4S)-4-carboxy-4-[[(4S)-4-carboxy-4-(19-carboxynonadecanoylamino)butanoyl]amino]butanoyl]-[Glu14,Arg17,Pro21,Pro27,Arg35]-h-amylin (peptide)
# peptide: K([γGlu-γGlu-C20 diacid])CNTATCATQRLAEFLRHSSPNFGAIPSSTNVGSRTY-NH2
# modifications: disulfide 2-7; N-terminus assumed
# SMILES: CC[C@H](C)[C@H](NC(=O)[C@H](C)NC(=O)CNC(=O)[C@H](Cc1ccccc1)NC(=O)[C@H](CC(N)=O)NC(=O)[C@@H]1CCCN1C(=O)[C@H](CO)NC(=O)[C@H](CO)NC(=O)[C@H](Cc1c[nH]cn1)NC(=O)[C@H](CCCNC(=N)N)NC(=O)[C@H](CC(C)C)NC(=O)[C@H](Cc1ccccc1)NC(=O)[C@H](CCC(=O)O)NC(=O)[C@H](C)NC(=O)[C@H](CC(C)C)NC(=O)[C@H](CCCNC(=N)N)NC(=O)[C@H](CCC(N)=O)NC(=O)[C@@H](NC(=O)[C@H](C)NC(=O)[C@@H]1CSSC[C@H](NC(=O)[C@@H](N)CCCCNC(=O)CC[C@H](NC(=O)CC[C@H](NC(=O)CCCCCCCCCCCCCCCCCCC(=O)O)C(=O)O)C(=O)O)C(=O)N[C@@H](CC(N)=O)C(=O)N[C@@H]([C@@H](C)O)C(=O)N[C@@H](C)C(=O)N[C@@H]([C@@H](C)O)C(=O)N1)[C@@H](C)O)C(=O)N1CCC[C@H]1C(=O)N[C@@H](CO)C(=O)N[C@@H](CO)C(=O)N[C@H](C(=O)N[C@@H](CC(N)=O)C(=O)N[C@H](C(=O)NCC(=O)N[C@@H](CO)C(=O)N[C@@H](CCCNC(=N)N)C(=O)N[C@H](C(=O)N[C@@H](Cc1ccc(O)cc1)C(N)=O)[C@@H](C)O)C(C)C)[C@@H](C)O
# notes: also called compound 89
# Molecular target: T1, human amylin receptor (amylin 3(a) …)
# Assay: cell-based or functional assay
row,hAmylin-R funct. EC50 (pM),Binder
1,130 pM,B1
2,383 pM,B2
3,333 pM,B3
4,162 pM,B4
5,404 pM,B5

# Molecular target: T2, human calcitonin receptor
# Assay: cell-based or functional assay
Ratio hCT/hAmylin funct.,hCTR funct. EC50 (pM),Binder
13.3,1730 pM,B1
–,100000 pM,B2
26,8660 pM,B3
44.9,7280 pM,B4
–,11200 pM,B5
